Results on six molecules are retold here after patent US20170224620A1 (Pfizer, published 2017).

The target of assay [1] is T1, EGF bound EGFR (rhEGFR-Fc with recombinant human EGF pre-injected in SPR or 50 nM EGF present in ELISA) (human, UniProt P00533 25-645; P01133 971-1023).
T1 construct: Complex of m1 and m5 as target; also called EGFR in the presence of EGF; With EGF; not shown: Fc tag
The experiment in a line: P2 competition ELISA: rhEGFR on the plate, 1 nM P2-Biotin dimer as tracer, 50 nM EGF. An excerpt:
An additional assay was developed to provide an orthogonal assay to SPR during the evaluation of the P₂ peptide analogs and nanoparticle conjugates.
A general note: ELISA stands for enzyme-linked immunosorbent assay.

For assay [2], the target named is T2, Fc tagged recombinant human EGFR (rhEGFR-Fc, R&D systems, Cat#344-ER-050) (human, UniProt P00533 25-645).
T2 construct: Bought protein; also called apo-EGFR; not shown: Fc tag
Briefly: EGF competition ELISA, 10% nanoparticle conjugate.

For assay [3], the target named is T2, Fc tagged recombinant human EGFR …. The experiment in a line: EGF competition ELISA, 10% nanoparticle conjugate. As for the experimental part: An alanine scan was performed on the amino acids within the cyclic portion of the peptide structure to determine which amino acids were critical for binding. Each amino acid within the peptide was individually replaced with alanine. […] Subsequently, an alanine scan of the flanking amino acids on P₁₋₃ was performed.
This is another data set of the same source.

Assay [4] addresses Fc tagged recombinant human EGFR (rhEGFR-Fc, R&D systems, Cat#344-ER-050) (human) (UniProt P00533). The experiment in a line: screening ELISA, peptide 100 µM against 0.7 nM biotin-EGF on coated rhEGFR.

Bridges are numbered along the chain shown (N, C = ends). Primed or numbered codes have the meaning given here. DBCO′ = dibenzocyclooctyne

B1: P2 (Ac-DPCTWEVWGRECLQGGK(PEG4-DBCO)-CONH2) (peptide)
peptide: Ac-DPCTWEVWGRECLQGGK(PEG4‑DBCO)-NH2
modifications: disulfide 3-12
notes: also called P2 DBCO conjugate; parent peptide (P2)
Consider B1, for which the “IC50 (read off the curve)” value in assay [1] is roughly 200 nM.

B2: 10% P1 nanoparticle (other)
peptide: Ac-SECFPLAPDWLSCILGGK(DBCO′)-NH2
modifications: disulfide 3-13; also: DBCO clicked to azide PLA-PEG nanoparticle, 10 mol %
notes: Multivalent nanoparticle conjugate; also called P1 conjugated to nanoparticle at 10 mol %; P1 NP
Turning to B2, the IC50 in assay [2] turned out to be 211 µg/mL.

B3: 10% P1-3 nanoparticle (other)
peptide: Ac-SECFPAAPDWLSCILGGK(DBCO′)-NH2
modifications: disulfide 3-13; also: DBCO clicked to azide PLA-PEG nanoparticle, 10 mol %
notes: also called P1-3 NP; P1-3 (Leu6-Ala) conjugate
For the molecule B3, in assay [2], the IC50 stood at 10.3 µg/mL.
In the case of Ac-AECFPAAPDWLSCILGGK(DBCO′)-NH2 (other, disulfide 3-13; also: DBCO clicked to azide PLA-PEG nanoparticle, 10 mol %) [10% P1-3-1 nanoparticle], the “10% NP Relative IC50 (normalized to P1)” value in assay [3] is 1 ratio.
Same read-out and setting: as for Ac-SECAPLAPDWLSCILGGK(DBCO′)-NH2 (other, disulfide 3-13; also: DBCO clicked to azide PLA-PEG nanoparticle, 10 mol %) [10% P1-1 nanoparticle], the figure is roughly 0.3 ratio.
In the case of H-DGYCLHDGVC-NH2 (cysteine pairing not given here) [EGFf-3], in assay [4], the % inhibition of EGF stood at 62.5%.

For orientation: IC50 means the concentration needed to halve the response being measured.
